Measured values taken from article PMC2879331 (Clinical cancer research : an official journal of the …, 2008).

Target: the molecule itself
Assay: non-reducing SDS-PAGE

B1: matrix metalloprotease 9 (MMP-9) (enzyme)
chain: not shown
  stoichiometry N: 2
